Changes are numbered by the printed parent chain. Names and notes keep the numbering of the source. Values joined by “and” are separate entries in the source; they are usually repeats but may differ in a detail not shown here. Equal entries are not always repeated. One block for each binder: values may come before it.
How the values were obtained:
hen egg-white lysozyme [1] = target: T1, hen egg-white lysozyme (hen, UniProt P00698 19-147); assay: fluorescence titration in solution, 0.3 µM conjugate, buffer C, 25 °C
T1 construct: also called HEL

hen egg-white lysozyme [2] = target: T1, hen egg-white lysozyme; assay: from Kd in solution: fluorescence titration of conjugate against competition Biacore of H4S(wt)
hen egg-white lysozyme [3] = target: T1, hen egg-white lysozyme; assay: Biacore kinetics, HEL immobilised; Kd' = koff/kon
hen egg-white lysozyme [4] = target: T1, hen egg-white lysozyme; assay: Biacore kinetics, HEL immobilised on CM5 chip, buffer E (reducing), 25 °C, 1:1 Langmuir model
hen egg-white lysozyme [5] = target: T1, hen egg-white lysozyme; assay: Biacore, HEL immobilised; Kd'' dissociation constant at steady state

B1: H4S conjugate, IANBD fluorophore coupled at position Lys39 (designed binder)
chain: MRGSHHHHHHGSVKVKFFWNGEEKEVDTSKIVWVKRAGKSVLFIYDDNGCNGYGDVTEKDAPKELLDMLARAEREKKLN
modifications: Cys at position 39 (H4S numbering) coupled to IANBD ester (ANBD)
Kd (hen egg-white lysozyme [1]): 126 nM | ΔF∞/F0 (maximal relative variation of fluorescence on HEL binding) (hen egg-white lysozyme [1]): 1.65 | ΔΔG (conjugate against H4S(wt)) (hen egg-white lysozyme [2]): ≥ 0.5 kcal/mol and ≤ 1.2 kcal/mol

B2: H4S conjugate, IANBD fluorophore coupled at position Phe7 (designed binder)
chain: B1 chain with F18C, C50K
modifications: Cys at position 7 (H4S numbering) coupled to IANBD ester (ANBD)
Kd (hen egg-white lysozyme [1]): 42 nM | ΔF∞/F0 (maximal relative variation of fluorescence on HEL binding) (hen egg-white lysozyme [1]): 0.26 | ΔΔG (conjugate against H4S(wt)) (hen egg-white lysozyme [2]): ≤ 0.5 kcal/mol

B4: H4S conjugate, IANBD fluorophore coupled at position Tyr42 (designed binder)
chain: B1 chain with C50K, Y53C
modifications: Cys at position 42 (H4S numbering) coupled to IANBD ester (ANBD)
Kd (hen egg-white lysozyme [1]): 2480 nM | ΔF∞/F0 (maximal relative variation of fluorescence on HEL binding) (hen egg-white lysozyme [1]): 6.6 | ΔΔG (conjugate against H4S(wt)) (hen egg-white lysozyme [2]): ≥ 1.5 kcal/mol

B5: H4S conjugate, IANBD fluorophore coupled at position Ser29 (designed binder)
chain: B1 chain with S40C, C50K
modifications: Cys at position 29 (H4S numbering) coupled to IANBD ester (ANBD)
Kd (hen egg-white lysozyme [1]): 33 nM | ΔF∞/F0 (maximal relative variation of fluorescence on HEL binding) (hen egg-white lysozyme [1]): 0.55 | ΔΔG (conjugate against H4S(wt)) (hen egg-white lysozyme [2]): ≤ 0.5 kcal/mol

B6: H4S conjugate, IANBD fluorophore coupled at position Thr46 (designed binder)
chain: B1 chain with C50K, T57C
modifications: Cys at position 46 (H4S numbering) coupled to IANBD ester (ANBD)
Kd (hen egg-white lysozyme [1]): 100 nM | ΔF∞/F0 (maximal relative variation of fluorescence on HEL binding) (hen egg-white lysozyme [1]): 0.36 | ΔΔG (conjugate against H4S(wt)) (hen egg-white lysozyme [2]): ≤ 0.5 kcal/mol

B10: H4S conjugate, IANBD fluorophore coupled at position Val21 (designed binder)
chain: B1 chain with V32C, C50K
modifications: Cys at position 21 (H4S numbering) coupled to IANBD ester (ANBD)
Kd (hen egg-white lysozyme [1]): 296 nM | ΔF∞/F0 (maximal relative variation of fluorescence on HEL binding) (hen egg-white lysozyme [1]): 6.3 | ΔΔG (conjugate against H4S(wt)) (hen egg-white lysozyme [2]): ≥ 0.5 kcal/mol and ≤ 1.2 kcal/mol

B11: H4S conjugate, IANBD fluorophore coupled at position Trp8 (designed binder)
chain: B1 chain with W19C, C50K
modifications: Cys at position 8 (H4S numbering) coupled to IANBD ester (ANBD)
Kd (hen egg-white lysozyme [1]): 189 nM | ΔF∞/F0 (maximal relative variation of fluorescence on HEL binding) (hen egg-white lysozyme [1]): 1.47 | ΔΔG (conjugate against H4S(wt)) (hen egg-white lysozyme [2]): ≥ 0.5 kcal/mol and ≤ 1.2 kcal/mol

Now from value to binder:

Kd (hen egg-white lysozyme [3]): 332 nM | koff (hen egg-white lysozyme [4]): 0.011 s⁻¹ | kon (hen egg-white lysozyme [4]): 40000 M⁻¹ s⁻¹ | Kd (hen egg-white lysozyme [5]): 389 nM
B3: H4S cysteine mutant V21C (not conjugated) (designed binder)
chain: B1 chain with V32C, C50K
notes: Free cysteine mutant, measured in reducing conditions

Kd (hen egg-white lysozyme [3]): 38 nM | koff (hen egg-white lysozyme [4]): 0.012 s⁻¹ | kon (hen egg-white lysozyme [4]): 310000 M⁻¹ s⁻¹ | Kd (hen egg-white lysozyme [5]): 24 nM
B7: H4S cysteine mutant K39C (not conjugated) (designed binder)
chain: B1 chain
notes: as for B3

Kd (hen egg-white lysozyme [3]): 68 nM | koff (hen egg-white lysozyme [4]): 0.03 s⁻¹ | kon (hen egg-white lysozyme [4]): 450000 M⁻¹ s⁻¹ | Kd (hen egg-white lysozyme [5]): 66 nM
B8: H4S cysteine mutant W8C (not conjugated) (designed binder)
chain: B1 chain with W19C, C50K
notes: as for B3

Kd (hen egg-white lysozyme [3]): 60 nM | koff (hen egg-white lysozyme [4]): 0.023 s⁻¹ | kon (hen egg-white lysozyme [4]): 380000 M⁻¹ s⁻¹ | Kd (hen egg-white lysozyme [5]): 54 nM
B9: H4S cysteine mutant A26C (not conjugated) (designed binder)
chain: B1 chain with A37C, C50K
notes: as for B3

Kd (hen egg-white lysozyme [3]): 117 nM | koff (hen egg-white lysozyme [4]): 0.023 s⁻¹ | kon (hen egg-white lysozyme [4]): 160000 M⁻¹ s⁻¹ | Kd (hen egg-white lysozyme [5]): 104 nM
B12: H4S(K24C) (not conjugated) (designed binder)
chain: B1 chain with K35C, C50K
notes: as for B3
